T1: human cluster designation 34 (CD34) antigen on the surface of TF-1 cells (human, UniProt P28906 32-385)
T1 construct: whole, on cells; native on TF-1 cells; also called CD34 membrane-protein; CD34-receptor
T1 sequence (looked up): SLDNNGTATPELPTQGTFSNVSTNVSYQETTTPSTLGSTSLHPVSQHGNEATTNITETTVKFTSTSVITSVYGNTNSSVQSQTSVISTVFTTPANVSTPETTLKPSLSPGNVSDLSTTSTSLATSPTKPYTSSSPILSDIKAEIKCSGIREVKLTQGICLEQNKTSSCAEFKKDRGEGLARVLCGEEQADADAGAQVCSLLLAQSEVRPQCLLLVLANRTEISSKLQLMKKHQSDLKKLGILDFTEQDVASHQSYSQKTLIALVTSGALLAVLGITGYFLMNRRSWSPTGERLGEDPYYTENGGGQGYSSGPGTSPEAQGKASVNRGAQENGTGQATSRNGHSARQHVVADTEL


Key:
[1] = biological target: T1, human cluster designation 34 (CD34) …; test: cell capture assay, conditioned medium of HEK293T cells, TF-1 cells, luminescence
Experimental: (§1) 96-well microplates (Maxisorp, Nalge Nunc) were coated with polyclonal anti-mouse IgG antibody developed in goats (Jackson Immuno Research, Suffolk, UK) or in sheep (Baxter Oncology, Halle, Germany). After washing with PBS, either conditioned medium containing the anti-CD34 antibody was added and incubated overnight at 4° C. or purified antibody was diluted in DMEM medium (Invitrogen/Gibco, Lofer, Austria) supplemented with 10% FCS (PAA Laboratories, Pasching, Austria) and 1% penicillin/streptomycin (Invitrogen/Gibco) prior to incubation. Subsequently, plates were washed with PBS and TF-1 cells (ATCC CRL-2003) were added at a cell density of 1×10⁵ cells/mL. TF-1 cells were cultivated in RPMI medium (Invitrogen/Gibco). The bound anti-CD34 antibody captures the TF-1 cells by binding to the CD34 present on the surface of the cells. After washing steps to remove the unbound cells, the Cell Titer-Glo reagent from the CellTiter-Glo Luminescent Cell Viability Assay Kit (Promega, Mannheim, Germany) was added. This reagent gives a luminescence signal proportional to the number of viable cells based on an ATP-dependent luciferase reaction (FIG. 3).
The expression of mouse IgG was first verified by the Easy Titer Mouse IgG Assay (Pierce) according to the manufacturer's instructions. To test the functionality of the antibodies the supernatants were tested in the cell capture assay. […]

[2] = biological target: T1, human cluster designation 34 (CD34) …; test: cell capture assay, dilution series of purified antibody, TF-1 cells
Experimental: as §1
Furthermore, in a large scale expression experiment 23 triple flasks (Nunclon Surface, Nalge Nunc) and one cell factory (Nalge Nunc) were co-transfected and incubated for three weeks. […]

binding result [1] | binding result [2] | Binder
binds | – | recombinant anti-CD34 antibody transiently expressed in HEK293T cells (co-transfection of pCMV-9C5lc and pCMV-9C5hc) (antibody, V domains shown, Tested as conditioned medium and as purified antibody, captured on plates coated with anti-mouse IgG; also called anti-CD34 9C5 antibody; transiently expressed recombinant anti-CD34 antibody) VH: EVQLQQSGPELVKPGASVKISCKASGYSFIGYFMNWVMQSHGRSLEWIGRINPYNGYTFYNQKFKGKATLTVDKSSSTAHMELRSLASEDSAVYYCARHFRYDGVFYYAMDYWGQGTSVTVSS VL: QLVLTQSSSASFSLGASAKLTCTLSSQHSTFTIEWYQQQPLKPPKYVMDLKKDGSHSTGDGVPDRFSGSSSGADRYLSISNIQPEDEATYICGVGDTIKEQFVYVFGGGTKVTVLG
– | binds | hybridoma-derived anti-CD34 antibody secreted by the mouse hybridoma cell line 9C5/9069 (antibody, V domains shown, also called hybridoma supernatant) VH: EVQLQQSGPELVKPGASVKISCKASGYSFIGYFMNWVMQSHGRSLEWIGRINPYNGYTFYNQKFKGKATLTVDKSSSTAHMELRSLASEDSAVYYCARHFRYDGVFYYAMDYWGQGTSVTVSS VL: QLVLTQSSSASFSLGASAKLTCTLSSQHSTFTIEWYQQQPLKPPKYVMDLKKDGSHSTGDGVPDRFSGSSSGADRYLSISNIQPEDEATYICGVGDTIKEQFVYVFGGGTKVTVLG
